From US20050232933A1, “CMV-IE1 peptides and method of use” (priority 2003, published 2005)
Where two headings read alike, the source gives them in different places.

Assays:
[1] = biological target: HLA A*0201 molecule on the surface of T2 cells (human); conditions: remark: other sources report otherwise
[2] = biological target: HLA A*0201 molecule on the surface of T2 cells (human); assay: T2 cell HLA-A2 stabilisation, 100 µM peptide for 18 h, BB7.2 flow cytometry
[3] = biological target: HLA A*0201 molecule on the surface of T2 cells (human); assay: T2 cell HLA-A2 stabilisation; fold over the mean of no peptide and HLA mismatch B7 peptide

Binder | Fold Increase [1] [fold] | peak channel [1] | peak channel [2] | Fold Increase [3] [fold]
TPRVTGGGAM (modifications not checked) [(-)control B7 T10M] | 1 | 232 | – | –
VLAELVKQI (modifications not checked) [IE1p81-89] | – | – | 495 | 2
LLSEFCRVL (modifications not checked) [IE1p304-312] | – | – | 433 | 1.8
